According to a protein production outcome set (Wang et al. 2014):

test: label from the status in PepcDB records
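Note: failed if final PepcDB status was selected cloned or expressed and not failed if soluble or beyond.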

| Sequence | protein production |
| --- | --- |
| MTVELLNEPLSRYPAFDTADPEELRQALSSVYGAKLVEGPIAADFHARSNFVQLDDIALAFGVGTGSIAVEFPEGECARLQIALSGQFTTRSGGTSTAINARQAGIISPGRNARTEYGQNYSFTLLRVSTSALERKLTTLLGCKPKASLEFEPAANNEAPQVVNLRRMLCFLANQLNCSPLPPVVLAELQEAITLLFLSAFRHNYSRQLERESHGIAPKHVRQVEEYIEANWMRPITIEKLTALTGISSRGIFKAFQRSRGYSPMAFAKRVRLQHAHNLLSDGATPTTVTAAALSCGFSNLGHFARDYRDMFGEKPSETLQRARP | failed |
| MTVGIIGAGNIGGAFATALGKAGIEAVIANSRGPESLTALVSKLGSTIRAGSVPEAAAQAIVLVAVPWSKIPGALAGLNFGDRIVIDANNSIEAPLYRPADLGGRTSTDIFTALVPGARVVKAFNHLTPKQLSGDPHSEGGRRVLFYSGDDMRAKAEVGAIIDRIGFFGIDLGGLPVGSQLLQFPGGPLPALNLVKFD | failed |
| MTVKHLAIAPEGKKSLRLSWTNVAFFTTIHALALLAPWFFSWSALGLLLFLHWLFGSIGICLGYHRLLSHKSFQVPKWLEYAIATIGALAMQGGPIFWIGGHRQHHAHTEDVYLDPYSSQRGFWWSHMLWILYPRSEFFDYEIYQKYAPDLARQPFYRWLDRYFLLLQIPFGLMLYAIGGWSFVIYGVVLRAVLLWHSTWFVNSATHMWGYRTFNADDNARNLWWVSIVTYGEGWHNNHHTYPNVAKAGFQWWEVDVTWWSIKLLQTLGLAKKVVLPPSQRMNQG | failed |
| MTVLDKVNDPTDIKALTPLELEELATNVRDAILNRVSQYPGGHLGPNLGVVEMTIALHKVFNSPVDKLIWDVSHQSYPHKVLTGRKEFFTDKDKFSGTTGYTDPEENEHDFIRVGHTSTSIATAMGYALARDVQGKKENIVAIIGDGALSGGLAFEGLDGAGTLNGNLIIIVNDNEMAITENHGGIYQHLADLRASKGTSANNLFKSFGLDYRYLEEGNDIQSLIVLFESVKDINRPIVLHIHIEKGHGYKPAVENKEGMHQVFAPFDIATGQPVNSSTNIVRSYNNVFLDFMEEKLAKGDNLIAINAAIPMFFGLSQFAKNHPKNYVDGGIAEQYTVTLGGAIAAAGTRAIIFQNATFLQRAYDQLNHDLALNKEPAIVIISNSQIGGTNDTHQGSFVYSQTSNIPNVIDLAATSEEDLFAMLNWAYNQHEHPVFIHLPEHTLENRPTKITDFSKPQYEVVKSGEKVAILGLGAMLEKAENVAEELEKSGFNPTVVNPFFANLLDVAALDKLSETHGLFVTIEDGTKDGGFGQKVATYLASKGIKTLVYGADTEFIDAVPKEELYNRYHIRPELMATDIIEATKESKGPNFFKKIFSKLEHHHHHH | not failed |
| MTVLIIGMGNIGKKLVELGNFEKIYAYDRISKDIPGVVRLDEFQVPSDVSTVVECASPEAVKEYSLQILKNPVNYIIISTSAFADEVFRERFFSELKNSPARVFFPSGAIGGLDVLSSIKDFVKNVRIETIKPPKSLGLDLKGKTVVFEGSVEEASKLFPRNINVASTIGLIVGFEKVKVTIVADPAMDHNIHIVRISSAIGNYEFKIENIPSPENPKTSMLTVYSILRTLRNLESKIIFG | not failed |
| MTVPEEAQTLIGKHYRAPDHFLVGREKIREFAVAVKDDHPTHYSEPDAAAAGYPALVAPLTFLAIAGRRVQLEIFTKFNIPINIARVFHRDQKFRFHRPILANDKLYFDTYLDSVIESHGTVLAEIRSEVTDAEGKPVVTSVVTMLGEAAHHEADADATVAA | failed |
| MTVPHPESVGEPGIAVRAPARRRSAWHGQAPVVAVVALGGGIGGTARYAAALLWPTQSGGFPWTTFWVNVVGCAVIGVFMVVITDVWPAHRLVRPFFGTGVLGGFTTFSTYAVDIQKLVDAGHPRTALAYLAATLLAALAAVRLAATAARRVLVRRRR | failed |
| MTVPLYKQIASLIEDSIVDGTLSIDQRVPSTNELAAFHRINPATARNGLTLLVEAGILYKKRGIGMFVSAQAPALIRERRDAAFAATYVAPLIDESIHLGFTRARIHALLDQVAESRGLYK | failed |
| MTVRTRVTDLLEIEHPILMGGMAWAGTPTLAAAVSEAGGLGIIGSGAMKPDDLRKAISELRQKTDKPFGVNIILVSPWADDLVKVCIEEKVPVVTFGAGNPTKYIRELKENGTKVIPVVASDSLARMVERAGADAVIAEGMESGGHIGEVTTFVLVNKVSRSVNIPVIAAGGIADGRGMAAAFALGAEAVQMGTRFVASVESDVHPVYKEKIVKASIRDTVVTGAKLGHPARVLRTPFARKIQEMEFENPMQAEEMLVGSLRRAVVEGDLERGSFMVGQSAGLIDEIKPVKQIIEDILKEFKETVEKLRGYIEE | not failed |
| MTVSHHNASTARFYALRLLPGQEVFSQLHAFVQQNQLHAAWIAGCTGSLTDVALRYAGQEATTSLTGTFEVISLNGTLELTGEHLHLAVSDPYGAMLGGHMMPGCTVRTTLELVIGELPALTFSRQPCAISGYDELHISSRLEHHHHHH | not failed |
| MTVVTFLAFLIPILVLAAIGGVVWWFWMKLRYKTARSNEALIIAGPKLGDPKKETNIFTDNEGRSIKIIRGGGHLLKMHQTATPVDLTSFQLKLTTPRVFTNGGVPIIADAVAMVTVSDTLKGIAIYAEQFLGKEQKEIESEISEVLNANLRAILSKMTVEQINEDREGFNLQVTEVAQKQLDSMGFKITSLGLQDLRDADKENGYLENLGRPRIAEVRKRAEIAESNSDKETRIHKANNDKEAKEQEFQRKIEIAAALKEKDLKDAAIKEETERARAKAEQSYLLEKAKLDKEVQEEELQLLARKKEEELRIKHLERERAVKLEEEEAKVRRAKADADFYETTRKAEADAEKARIEGETKARIKREEGLAEAEVIRKRGEAEAEAKRLLAEAIAKHGEVIIIEKLIEMLPQFAESISKPLSNIESVKIIDTGNGNGVSSYSKSITNTMAQIQEPLKELTGLDVSKLLTDLVNRGNTHTVVRTEAVPTDHHGSPVAASTESEEPVEDQPLENSDSEEKLEHHHHHH | not failed |
| MTWLIISGLVVGALLGFVMQRTRFCLAGGFRDMYIQKSNKMFYALLIAISVQSIGLLLLTSTRLVEIPESTYPIIGTVIGSFIFGLGIIMAGGCATGTWYRAGEGLIGSWMALIAYAFTSAATKFGLLLPLMNGLNKPTNVNTSMSQTTGIPTWVFVIVLIVITLFFVVKTLRKPKFAVPKLKQKFTGIRHYLFEKKYHPFVAAIAVGLIALLAWPVSESTGRMYGLGITTPSANLVQFFVTGDLKLLDWGVFLVLGIFFGSYIAAKGAKEFKWRLPDKKTIRNSIIGGVLMGFGASVAGGCSIGNGLVETATMSWKGWIALASMILGAWTMSYFVFIRPMKKAQSQTSNTKVSSQTQTS | failed |
| MTYCLGIVTQAGLIMAADSRTNAGIDYISTYQKLFDFSLPGDRTIVICCSGNLSITQAVLSQLRRDLAGHFDINLHSLPTMYDLARYLGQKVRQLQESDRDWLKQDGIDFYCNFLLGGQIRGGPIELYLVYGQGNCIHATPETPYLQIGETKYGKPILDRTISFDTSLDMAAKCALMSLDSTMRSNLSVGPPLNLARYERDSLVAPMLVQFPAGHEYLVEMRRRWEISLKDAFMRLPDIDWSRQLMRSLSPVSESVPLEHHHHHH | failed |
| MTYCLGVKLKDGLVAIADTRITSGTDTTTAKKLFVHESAHGSLFLMTSGLRSVRDKAITYFKEVLKDEHVVYNQLYEAVNAFGNQLRRVAEEDRKALYAAGFAFNLHTIVGGQLKNDEEPKMFLLYPEGNWIELTQTSPFMIIGNSGYGKPILNRTVKYESTLEEVLKAGFLSFDSTRVSANDVDFPLDVVVYYNNSFKMIEHRFEKKDMEIISTTWDNQLKQALDSVPEEWMNVVFDRKNVLLEHHHHHH | failed |
| MTYKELATFLKVLSDSSRLEILDLLSCGELCACDLLAHFQFSQPTLSYHMKALVKTNLVTTRKIGNKHLYQLNHNIFESVINNLSKVHTSNQRCICHNLKTGEC | failed |
| MTYKVLHVGAGGFGERWCDTFLPSNNSDGTIEVVGLVDIDARALEIGRKHLGLKAKQCFTSAAQAFKAVDADFCTIVIPPALHEGIVDLALERGMHILSEKPIAATMEASVRIADKVRVAGRKMAVTMSHRFDQDKSTLRALVSDEALGRVNTVSCRFAGDYRAYDSWGRFRHEMIHPMLIEGAVHHLDIMADLAGAPCTSIYARSWKPEWAEYKGETDVMVLMDFANGAHGVYEGSSAQATGLNDWTFEYVRVEAASGTAILDHREVEVFHRDPKRIYQKNRHGKGQQVSLLGGKKWKNSLLIEQFCHWLDGGPPMATNVEDNLQSVALIFSAIESARLGQPVKVQEFLQSFRKSASIETQ | failed |
| MTYMYDHDHIPKHITATIWEHLQRENPNFFKEYNKRCELVRQIVTLNDLLAQQIDLMQRLSQLDVGTTAPVTKLQEPNDHHHDEVQTLEQWLETNGFANIEDTFLCLSDLVDAPVTEVQKPKDKDQSCDQWINGSNDLASIEETVSSLINPSPFAETPQSEPPGLRYDTDCACITATSNLVTWVYDPSGDNKSGVEISSERRFGANISLERRRPREAGFTEQRPPSVLDGGRITGPLSSEPTMTH | failed |
| MTYQQAGRIAVIKRILGWVIFIPSVLSTLISVLKFMYEHSEKKPGIDAVMMDFAHVMIEMMRFNTPFLNFFWYNSPLPDFHHSLNIGFWIIFILVFVGMALQASGARMARQAKFLREGIEDQLILEQAKGADGLTREQLAERIVVPRHTILVQYFPLYVLPVIVIVIGYFFFSLLGFL | failed |
| MVAACKTMLTQIYEVATPAEAEAISVIGVDHVGVLVGDGAFPRELPVQKALAVMKMVRAPSVVSALFLSADVALIERMARELDPPIVHLGASSELLTPDLVVALRKSLPKTKFMRSVPVTGPEAVGVAQAYDGVVDWILLDSHRTGDVQIGAQGVTHDWSISRTIVESVRTPVILAGGLGPDNVKEAIRSVRPAGVDSKTRTDREGTHSKDLRKVEAFYRAATSG | failed |
| MVACRVRLGRHQGARAGRTVCPKHRLRARDAGSRECAALSAGCGRMGRMSEQSLPDGVRPQNADALPEYAERVLDMTELIPPGRVMTYGDVAEYLEEGGPRQVGRVMSLYGGGVPWWRVVRADGVLLAGHELEALDRYREEGTPLKEASRAAEGHLPRLDLKRARWDGEGRPQGHGGRAQGHT | failed |
| MVAGRRKVVPGLVLLCLGALLARSLSVLIGINELLLAIALGAVLVNTVGIPERFRHGTATYNIWLAAGIVLLGSSLTVGMIIEVGATVLLLLVAAVTLTLVTVEVLARNVAGVTDRFGSLLAAGAGICGVSAVAAVGGAVRAKEMHIAYAAGVVLLVDAVTIVVYPIVGAVLDLPDVVFGVWAGVSMLSTGPVVAVGFAHSEVAGQWATITKLARNALIGVVALGYASYYARRGAGGSTSVRMLWENFPKFVLGFLVLVGLASLGAFSPAQQDMISTVVDWLFLLAFVGLGTQIRTAELRATGITPALIVFAAVLLVSVLSLAAALVVL | failed |
| MVAIAQGLPHDLLAPAWQILILGDGSPTRHLQLLTGETTEVDVIDMSAIGHAGDRAPAQLQLIPGPRLRRQVWLRTASGQRLAYATSWWEAAHVDEYLQNRAMPIWTNLAQRKLELYRDIQAVYLGHSETLAAAFGEAGPFWGRHYLFWHDRRPITLIYEVFSPYLCRYLGPMGSTAYWANSALPFALEHHHHHH | failed |
| MVAIDYVVIGAGYAGLMCAEALMDKGFKTLVFDMRESGGEIVVFSKLEEFRSKYEKYIEKIEEIRKDIPVDIGTVIKSKPVIINSGNGLKRYEARRVILATGATDTAPVKLNVLSKKIEGIYTLENALREISENNKIGEKVLIAAKDDVIVKLAESQLSDLGYDVEISELTNDIQVIGKERVEGVEISGVRYSCDTLVVYGGRNPFNPLKLRGTPVGNVVTCTYDYSKVEENVKNFLAKILEHHHHHH | failed |
